Patent EP4676971A2 (dated 2026)
Substitutions are numbered along the chain they refer to. “And” between values parts separate entries of the source, which are not always exact repeats. Identical values can stand only once.

T1: cynomolgus monkey TL1A produced by PBMCs in stimulated whole blood (cynomolgus monkey, UniProt G7PRK8 72-251)
T1 sequence: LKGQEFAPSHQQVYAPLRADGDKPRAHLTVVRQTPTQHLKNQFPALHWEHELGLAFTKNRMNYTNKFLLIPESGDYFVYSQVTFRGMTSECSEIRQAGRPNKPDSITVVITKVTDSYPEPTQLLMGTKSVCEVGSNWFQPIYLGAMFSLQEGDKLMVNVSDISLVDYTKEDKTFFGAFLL

T2: recombinant cynomolgus monkey TL1A protein (cynomolgus monkey, UniProt G7PRK8 72-251)
T2 sequence: T1 sequence

T3: membrane-bound human TL1A on TNFSF15/HEK293 cells (human, UniProt O95150 1-251)
T3 construct: whole, on cells; also called membrane-associated TL1A
T3 sequence (looked up): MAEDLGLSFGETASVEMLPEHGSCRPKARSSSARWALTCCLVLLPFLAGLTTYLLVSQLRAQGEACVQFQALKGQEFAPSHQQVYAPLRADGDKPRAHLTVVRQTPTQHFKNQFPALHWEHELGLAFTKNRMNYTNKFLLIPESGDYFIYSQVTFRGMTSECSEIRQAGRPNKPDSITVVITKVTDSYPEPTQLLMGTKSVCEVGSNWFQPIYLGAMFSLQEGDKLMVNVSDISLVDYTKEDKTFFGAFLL

T4: TNFSF6 (FasL) (UniProt P48023 134-281, limits assumed)
T4 sequence (looked up): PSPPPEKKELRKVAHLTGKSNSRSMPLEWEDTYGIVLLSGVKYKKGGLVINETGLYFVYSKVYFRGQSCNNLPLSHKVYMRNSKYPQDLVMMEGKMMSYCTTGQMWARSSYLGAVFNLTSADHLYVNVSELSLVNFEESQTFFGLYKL

T5: recombinant rat TL1A protein (rat, UniProt Q8K3Y7 76-252, limits assumed)
T5 sequence (looked up): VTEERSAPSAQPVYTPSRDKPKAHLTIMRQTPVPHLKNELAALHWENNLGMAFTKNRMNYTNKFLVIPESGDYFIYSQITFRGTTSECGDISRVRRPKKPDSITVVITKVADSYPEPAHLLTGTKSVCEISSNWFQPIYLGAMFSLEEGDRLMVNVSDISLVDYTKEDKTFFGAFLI

T6: recombinant mouse TL1A protein (mouse, UniProt Q5UBV8 76-252, limits assumed)
T6 construct: also called murine TL1A
T6 sequence (looked up): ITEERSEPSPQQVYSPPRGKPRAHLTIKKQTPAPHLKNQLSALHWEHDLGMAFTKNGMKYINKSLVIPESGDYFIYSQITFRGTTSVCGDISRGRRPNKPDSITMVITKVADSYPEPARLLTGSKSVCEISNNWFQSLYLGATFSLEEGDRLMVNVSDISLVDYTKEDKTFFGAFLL

T7: DR3 receptor on human TF-1 cells (human, UniProt Q93038 25-417)
T7 construct: whole, on cells; also called death receptor 3; TNFRSF25
T7 sequence (looked up): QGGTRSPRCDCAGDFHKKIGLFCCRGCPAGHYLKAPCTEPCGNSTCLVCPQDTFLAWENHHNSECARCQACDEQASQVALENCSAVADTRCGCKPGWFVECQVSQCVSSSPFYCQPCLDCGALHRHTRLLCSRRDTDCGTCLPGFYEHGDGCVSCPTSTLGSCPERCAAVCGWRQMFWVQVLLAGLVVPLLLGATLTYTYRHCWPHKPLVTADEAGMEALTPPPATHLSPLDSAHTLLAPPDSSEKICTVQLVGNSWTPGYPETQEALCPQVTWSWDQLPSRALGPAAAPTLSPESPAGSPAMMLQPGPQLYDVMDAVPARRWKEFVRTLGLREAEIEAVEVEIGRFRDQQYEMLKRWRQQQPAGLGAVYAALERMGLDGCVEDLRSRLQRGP

B1: anti-TL1A antibody A219 (antibody, V domains shown)
VH: QVQLVQSGAEVKKPGASVKVSCKASGFDIQDTYMHWVKQRPGQGLEWMGRIDPASGHTKYDPKFQVRVTITRDTSTSTVYLELSSLRSEDTAVYYCARSGGLPDVWGQGTTVTVSS
VL: EIVLTQSPGTLSLSPGERATLSCRASSSVSYMYWYQQKPGQAPRPLIYATSNLASGIPDRFSGSGSGTDFTLTISRLEPEDFAVYYCQQWEGNPRTFGGGTKLEIK
notes: Humanized monoclonal antibody; Molecular weight 143938 Daltons; The constant region is not tied to A219 in the readable text
B2: recombinant human TL1A protein (ligand, UniProt O95150 72-251, looked up)
chain: T1 sequence with L39F, V78I
notes: also called tumor necrosis factor-like cytokine 1A; TNFSF15

Legend:
[1] = target: T1, cynomolgus monkey TL1A produced by …; assay: cell-based or functional assay
[2] = target: B2; assay: cell-based or functional assay
[3] = target: T2, recombinant cynomolgus monkey TL1A …; assay: cell-based or functional assay
[4] = target: T2, recombinant cynomolgus monkey TL1A …; assay: ELISA, binding to recombinant TL1A protein
[5] = target: T3, membrane-bound human TL1A on …; assay: binding to TNFSF15/HEK293 cells that carry human TL1A, dose-dependent
TNFSF14 (LIGHT) = TNFSF14 (LIGHT) (UniProt O43557 74-240, limits assumed); assay: ELISA
TNFSF6 (FasL) = target: T4, TNFSF6 (FasL); assay: ELISA
TNFSF10 (TRAIL) = TNFSF10 (TRAIL) (UniProt P50591 114-281, limits assumed); assay: ELISA
[6] = target: B2; assay: surface plasmon resonance (SPR), recombinant TL1A protein
[7] = target: T2, recombinant cynomolgus monkey TL1A …; assay: as above
[8] = target: T5, recombinant rat TL1A protein; assay: ELISA on recombinant TL1A protein
[9] = target: T6, recombinant mouse TL1A protein; assay: ELISA on recombinant TL1A protein
[10] = target: T7, DR3 receptor on human TF-1 cells; assay: TF-1 cell caspase activation assay

Sequence of TNFSF14 (LIGHT) (O43557 74-240 limits assumed): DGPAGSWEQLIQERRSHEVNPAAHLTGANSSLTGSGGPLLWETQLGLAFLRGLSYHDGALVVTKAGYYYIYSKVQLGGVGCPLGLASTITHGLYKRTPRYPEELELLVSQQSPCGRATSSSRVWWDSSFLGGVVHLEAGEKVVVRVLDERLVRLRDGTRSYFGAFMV
Sequence of TNFSF10 (TRAIL) (P50591 114-281 limits assumed): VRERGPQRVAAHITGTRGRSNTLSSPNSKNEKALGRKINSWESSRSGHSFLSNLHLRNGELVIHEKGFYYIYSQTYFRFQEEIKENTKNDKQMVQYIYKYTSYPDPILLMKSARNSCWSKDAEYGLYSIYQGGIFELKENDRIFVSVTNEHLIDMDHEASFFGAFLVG

With B1 the “inhibition of the IFN-gamma response in monkey whole blood (mean IC50)” value [1] was 1.54 nM and 289 ng/mL, the “inhibition of TL1A-induced caspase activation in TF-1 cells (IC50)” value [2] was 0.27 nM and the “inhibition of TL1A-induced caspase activation in TF-1 cells (IC50)” value [3] was 0.59 nM. The IC50 [4] was 0.47 nM, the EC50 [5] was 17.4 nM and the binding result (TNFSF14 (LIGHT)) was “no binding”. The binding result (TNFSF6 (FasL)) was “no binding”, the binding result (TNFSF10 (TRAIL)) was “no binding” and the Kd [6] was 0.06 nM. For the same binder, the Kd [7] was 0.04 nM, the binding result [8] was “no binding” and the binding result [9] was “no binding”.

B2: binds [10].
